Here are results for three molecules from US20190201500A1 (ONL THERAPEUTICS, published 2019).

No end group written: not given here.

The target in the assay is T1, Fas receptor on 661W photoreceptor cells (UniProt P25446 22-327, limits assumed).
T1 sequence (looked up): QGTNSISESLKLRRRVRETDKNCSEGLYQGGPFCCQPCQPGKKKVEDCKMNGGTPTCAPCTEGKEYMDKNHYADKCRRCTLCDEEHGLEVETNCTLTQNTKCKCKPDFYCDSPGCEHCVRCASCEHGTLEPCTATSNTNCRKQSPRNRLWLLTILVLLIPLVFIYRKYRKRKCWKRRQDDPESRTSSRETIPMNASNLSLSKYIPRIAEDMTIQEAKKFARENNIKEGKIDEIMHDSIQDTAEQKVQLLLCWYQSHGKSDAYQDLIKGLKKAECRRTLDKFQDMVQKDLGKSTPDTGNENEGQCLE
The experiment in a line: cell-based or functional assay.

Regarding “human recombinant FasL (from UniProt P48023 134-281) (ligand)”, the caspase 8 activity in 661W cell lysates (dose of peak activity) came to 500 ng/mL and the increase of caspase 8 activity in 661W cells lay in the range of 20 to 30%.
Turning to HHIYLGAVNYIY-NH2 (also: trihydrochloride salt) [Compound 1 (His-His-Ile-Tyr-Leu-Gly-Ala-Val-Asn-Tyr-Ile-Tyr-NH2), C-terminal amide of Met-12], the “EC50, inhibition of FasL-induced caspase 8 activation in 661W cells” value was 400 nM; the “fold potency against Met-12 by IC50 determination” value worked out at 10 fold; the “fold potency against Met-12 by the concentration of maximal inhibition” value is approximately 3 fold.
As for HHIYLGAVNYIY (also: trihydrochloride salt) [Met-12 (HHIYLGAVNYIY)], the “EC50, inhibition of FasL-induced caspase 8 activation in 661W cells” value is 4000 nM.
